From the array DNA melting data of Ke et al.

Assay: melting temperature; melt of duplexes
Conditions: sodium 0.0675 M; strand 1 µM

Row | Substance | Tm [°C]
1 | CGACGTGCCGCATGTGCTG+CAGCACATATAGCACGTCG ((((((((...((((((((+))))))))...)))))))) | 48.2
2 | CGACGTGCGTGATGTGCTG+CAGCACATTATGCACGTCG ((((((((.(.((((((((+)))))))).).)))))))) | 54.5
3 | CGACGTGCACAATGTGCTG+CAGCACATTCGGCACGTCG ((((((((..(((((((((+)))))))))..)))))))) | 49.7
4 | CGACGTGCCCCATGTGCTG+CAGCACATCGGGCACGTCG ((((((((((.((((((((+)))))))).)))))))))) | 57.2
5 | CGACGTGCCTAATGTGCTG+CAGCACATTGTGCACGTCG ((((((((..(((((((((+)))))))))..)))))))) | 49
6 | CGACGTGCTGAATGTGCTG+CAGCACATAGGGCACGTCG ((((((((...((((((((+))))))))...)))))))) | 50.7
7 | CGACGTGCGAAATGTGCTG+CAGCACATATAGCACGTCG ((((((((.(.((((((((+)))))))).).)))))))) | 54.3
8 | CGACGTGCACTATGTGCTG+CAGCACATCGGGCACGTCG ((((((((.(.((((((((+)))))))).).)))))))) | 51.1
9 | CGACGTGCGCAATGTGCTG+CAGCACATGCAGCACGTCG ((((((((...((((((((+))))))))...)))))))) | 57.9
10 | CGACGTGCTTAATGTGCTG+CAGCACATCTTGCACGTCG ((((((((...((((((((+))))))))...)))))))) | 48.9
11 | CGACGTGCATTATGTGCTG+CAGCACATAACGCACGTCG ((((((((.((((((((((+)))))))))).)))))))) | 53.8
12 | CGACGTGCGATATGTGCTG+CAGCACATGCGGCACGTCG ((((((((...((((((((+))))))))...)))))))) | 50
13 | CGACGTGCGACATGTGCTG+CAGCACATTCAGCACGTCG ((((((((...((((((((+))))))))...)))))))) | 52.4
14 | CGACGTGCTTAATGTGCTG+CAGCACATTTAGCACGTCG (((((((((.(((((((((+))))))))).))))))))) | 55.5
15 | CGACGTGCTAGATGTGCTG+CAGCACATAAGGCACGTCG ((((((((...((((((((+))))))))...)))))))) | 51.4
16 | CGACGTGCCATATGTGCTG+CAGCACATTCAGCACGTCG ((((((((...((((((((+))))))))...)))))))) | 50.2
17 | CGACGTGCGATATGTGCTG+CAGCACATATCGCACGTCG (((((((((((((((((((+))))))))))))))))))) | 64.1
18 | CGACGTGCTAAATGTGCTG+CAGCACATCCGGCACGTCG ((((((((...((((((((+))))))))...)))))))) | 49.5
19 | CGACGTGCAACATGTGCTG+CAGCACATCAAGCACGTCG ((((((((...((((((((+))))))))...)))))))) | 47.1
20 | CGACGTGCTTAATGTGCTG+CAGCACATAAAGCACGTCG ((((((((((.((((((((+)))))))).)))))))))) | 56.2
21 | CGACGTGCAGCATGTGCTG+CAGCACATTCGGCACGTCG ((((((((.(.((((((((+)))))))).).)))))))) | 49.7
22 | CGACGTGCTCCATGTGCTG+CAGCACATTCCGCACGTCG ((((((((...((((((((+))))))))...)))))))) | 45.6
23 | CGACGTGCAGGATGTGCTG+CAGCACATGTGGCACGTCG ((((((((...((((((((+))))))))...)))))))) | 50.9
24 | CGACGTGCGTCATGTGCTG+CAGCACATTTCGCACGTCG (((((((((..((((((((+))))))))..))))))))) | 53.1
25 | CGACGTGCGTCATGTGCTG+CAGCACATTGTGCACGTCG ((((((((...((((((((+))))))))...)))))))) | 46.3
26 | CGACGTGCGATATGTGCTG+CAGCACATTGTGCACGTCG ((((((((...((((((((+))))))))...)))))))) | 47.6
27 | CGACGTGCGGGATGTGCTG+CAGCACATTGAGCACGTCG ((((((((...((((((((+))))))))...)))))))) | 55.3
28 | CGACGTGCATGATGTGCTG+CAGCACATATGGCACGTCG ((((((((...((((((((+))))))))...)))))))) | 49.7
